The record followed here is publication PMC9508819, “Rbp95 binds to 25S rRNA helix H95 and cooperates with the Npa1 complex during early pre-60S particle maturation”.

Series [1] addresses T1, Rbp95 full length (Saccharomyces cerevisiae, UniProt P25617 1-290).
T1 sequence: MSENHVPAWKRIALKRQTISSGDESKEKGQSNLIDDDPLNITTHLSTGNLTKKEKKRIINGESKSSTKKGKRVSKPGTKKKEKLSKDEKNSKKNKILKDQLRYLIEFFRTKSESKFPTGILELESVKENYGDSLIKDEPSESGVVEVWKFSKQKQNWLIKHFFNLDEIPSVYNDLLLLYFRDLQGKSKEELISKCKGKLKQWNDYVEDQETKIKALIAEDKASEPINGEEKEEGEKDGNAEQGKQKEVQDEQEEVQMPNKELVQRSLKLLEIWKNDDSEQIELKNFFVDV
The series is described as follows: EMSA; 5 nM RNA; shift starts at 1.5-fold excess; similar to H95; EMSA: 25 mM Tris-HCl pH 7.5, 75 mM NaCl, 2.5 mM MgCl2, 3.5% glycerol, 0.025% Tween 20, 0.5 mM DTT, 5 nM Cy5-RNA, 30 min at RT; 4-20% TBE gel. The note with it: protein: recombinant; tags: N-terminal His6; label: 5'-Cy5; hairpin.

For series [2], the target named is T1, Rbp95 full length. In words: EMSA; 5 nM RNA; shift starts at 1.5-fold excess of Rbp95; EMSA: 25 mM Tris-HCl pH 7.5, 75 mM NaCl, 2.5 mM MgCl2, 3.5% glycerol, 0.025% Tween 20, 0.5 mM DTT, 5 nM Cy5-RNA, 30 min at RT; 4-20% TBE gel. The note with it: protein: recombinant; tags: N-terminal His6; label: 5'-Cy5; hairpin.
For the next series, the target named is T2, Rbp95 183-end (Saccharomyces cerevisiae, UniProt P25617 183-290).
T2 sequence: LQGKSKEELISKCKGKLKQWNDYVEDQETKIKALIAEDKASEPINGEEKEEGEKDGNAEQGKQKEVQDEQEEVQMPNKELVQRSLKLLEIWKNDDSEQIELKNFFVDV
In words: EMSA; 100- or 500-fold excess; not sufficient for binding; EMSA: 25 mM Tris-HCl pH 7.5, 75 mM NaCl, 2.5 mM MgCl2, 3.5% glycerol, 0.025% Tween 20, 0.5 mM DTT, 5 nM Cy5-RNA, 30 min at RT; 4-20% TBE gel. The note with it: protein: recombinant; tags: N-terminal His6; label: 5'-Cy5; hairpin. In general terms: A gel shift assay detects complexes by their altered migration in electrophoresis.

The target of a further series is T3, Rbp95 1-85 (Saccharomyces cerevisiae, UniProt P25617 1-85).
T3 sequence: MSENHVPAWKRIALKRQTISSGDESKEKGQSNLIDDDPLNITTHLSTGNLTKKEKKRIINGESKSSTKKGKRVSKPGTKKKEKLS
In words: EMSA; 100- or 500-fold excess; strong shift, slightly more protein needed than full length; EMSA: 25 mM Tris-HCl pH 7.5, 75 mM NaCl, 2.5 mM MgCl2, 3.5% glycerol, 0.025% Tween 20, 0.5 mM DTT, 5 nM Cy5-RNA, 30 min at RT; 4-20% TBE gel. The note with it: protein: recombinant; tags: N-terminal His6; label: 5'-Cy5; hairpin.

The target in series [3] is T1, Rbp95 full length. The series is described as follows: competition; 20-100-fold excess over Cy5-H95; reverts shift; EMSA: 25 mM Tris-HCl pH 7.5, 75 mM NaCl, 2.5 mM MgCl2, 3.5% glycerol, 0.025% Tween 20, 0.5 mM DTT, 5 nM Cy5-RNA, 30 min at RT; 4-20% TBE gel. The conditions noted are these: protein: recombinant; tags: N-terminal His6; hairpin.

In the case of AAAGGGCGUCAGGGUUGAUAUGAUGCCCUGACGCCC (structured_RNA) [helix H45 (25S rRNA)], in the series with Rbp95 full length [1], the binding result is “binds”. With AAAGGGAAUUGAACUUAGUACGAGAGGAACAGUUCAUUUCCC (structured_RNA) [helix H95 (25S rRNA)], the binding result is recorded as “binds” in the series with Rbp95 full length [2], “no binding” with Rbp95 183-end and “binds” in the series with Rbp95 1-85. With AAAGGGAAUUGAACUUAGUACGAGAGGAACAGUUCAUUUCCC (structured_RNA) [helix H95 unlabeled competitor], in the series with Rbp95 full length [3], the binding result is given as “binds”.
